The record followed here is the supplement of paper PMC9170038.

This data set concerns MS2 coat protein. Kind of data set: apparent KD of MS2 coat protein; designed switch direction (-1 OFF switch, 1 ON switch): -1; higher = weaker reporter binding. Summed up:
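RNA switches sharing common flanks were transcribed by stalled E. coli RNA polymerase on Illumina chips. A doubling series of SNAP-549-labelled MS2 coat protein, from 0.7 or 1.5 nM to 3 µM, was applied in Tris-HCl pH 7.5 buffer with KCl, MgCl2, BSA, DTT, tRNA and Tween-20. Each step lasted 0.8–1.5 h at the bottom of the series and 10–20 min at the top. Normalised cluster fluorescence was curve-fitted, giving apparent KD as the per-design median over clusters.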

[1] abbreviates: input ligand: microRNA oligo, concentration not stated.
Setting [2] is: Eterna round: R95, input ligand: microRNA oligo, concentration not stated.
Where [3] appears, read: Eterna round: R95, input ligand: FMN 200 uM.
The mark [4] stands for this setting: Eterna round: R95, input ligand: none.

Consider “GUCGUACAUGAGGAUCACCCAUGUGAGGAUAUAGGUAGCAACCAGAAAUGGUUGCUACCUAGAAGGCGCAUGAU [Malcxlusion 10 - Jieux - Exclusion 1] (Eterna round: R97, puzzle: Exclusion 1)”, for which the “apparent KD of MS2 coat protein” value runs as follows: (input ligand: FMN 200 uM) 529 nM; (input ligand: none) 104 nM. “GUCGUACAUGAGGAUCACCCAUGUGAGGAUAUGGGCGGCGCCGCAAAAGCGGCGCCGCCCAGAAGGCGCAUGAU [Malcxlusion 6 - Jieux - Exclusion 1] (Eterna round: R97, puzzle: Exclusion 1)”: the “apparent KD of MS2 coat protein” value is 234 nM (input ligand: FMN 200 uM) and 79.6 nM (input ligand: none).

On to “GUCGUGCGGCAGUGCUGUACGAGUACAUGAGGAUCACCCAUGUAGGAUAUGGUUCGUUUUGCGUGCUAGAAGGGCGUGCGUUGG [Excl-NG3-LRO21] (Eterna round: R96, puzzle: Exclusion NG 3)”, for which the “apparent KD of MS2 coat protein” value was determined as 19.3 nM (input ligand: FMN 200 uM), 16.3 nM under setting [1] and 21.4 nM (input ligand: none). For “GUCGUGCGGCAGUGCUGUACGAGUACAUGAGGAUCACCCAUGUAGGAUAUGGUUCGUUUUGCGUGCUAGAAGGGCGUGCGUUUA [Excl-NG3-LRO19] (Eterna round: R96, puzzle: Exclusion NG 3)” the same measures were 18.4 nM, 18.2 nM and 21.2 nM. For the sequence “GUCUACCAGCUAGGAUAUGCAGUACAUUAAAAUGUAGAAGGAGCACGAUCCAGACAUGAGGAUCACCCAUGUGGGCGGUAGGCA [Aques] (Eterna round: R96, puzzle: Exclusion NG 1)”, the “apparent KD of MS2 coat protein” value under setting [1] came out at 15.6 nM. Turning to “GUCUCGUCAGGAUAUGACGCUACAUUUUUUUUUUAGAAGAGUCAGAAGGGACAUGAGGAUCACCCAUGUGAUUC [Ex4 - 3 - 2] (puzzle: Exclusion 4)”, the “apparent KD of MS2 coat protein” value under setting [2] was determined as 167 nM. Regarding “GUCUUGAUAGGAUAUACAUGAGGAUCACCCAUGUCCCACCCGUUACCUCUGACCCUAUGUAGAAGGAUCGUCUG [Exy#18] (Eterna round: R97, puzzle: Exclusion 3)”, the “apparent KD of MS2 coat protein” value runs as follows: (input ligand: FMN 200 uM) 30.4 nM; (input ligand: none) 35.5 nM. In the same order, the values of “GUGCAGCUAGGAUAUACCGAAUGGGCCGAGCCGAAAAUAUUACAUGAGGAUCACCCAUGUAGAAGGAGCCAAUU [Eternabot (Original) Solution 22] (Eterna round: R97, puzzle: Exclusion 2)” are 64.5 nM and 34.7 nM. For “GUGCCGCGAGGAUAUACAGACGGGUCCAGUACGUGUCUUGGACUUGAGGAUCACCCAAGUAGAAGGCGUCUCAG [salish99_ex2_r4_612] (Eterna round: R97, puzzle: Exclusion 2)” the same measures were 37.6 nM and 48.9 nM.

For “GUGCCGCGAGGAUAUACAGACGGGUCCAGUGCGUGUCUCGGACUUGAGGAUCACCCAAGUAGAAGGCGUCUCAG [salish99_ex2_r4_614] (Eterna round: R97, puzzle: Exclusion 2)”, the “apparent KD of MS2 coat protein” value is, setting by setting: (input ligand: FMN 200 uM) 16.7 nM; (input ligand: none) 31 nM. Regarding “GUGGCACAUGAGGAUCACCCAUGUCAGGAUAUCGCGUGUUUUUUUUCGGCCGCGCGCGCGAGAAGGGACGUCUU (puzzle: Exclusion 1)”, the “apparent KD of MS2 coat protein” value under setting [2] was determined as 22.8 nM. Consider “GUGGGCUUUUAGGUUCUUGACAUGAGGAUCACCCAUGUGCUUGUCUUGCUGGCUGGCGGGUCGUCGGUCGGGCUUGU (Eterna round: R97, puzzle: Sensor, turn-off variant 1)”, for which the “apparent KD of MS2 coat protein” value was 559 nM (input ligand: FMN 200 uM) and 646 nM (input ligand: none). “GUGGGUUACAUGAGGAUCACCCAUGUAUAGUGGGAAAAGAUAUAGGAUAUAAUAUAAAAAUUAUAUUAGAAGGAUAGAGACUAG [AK ExNG3-1.1] (Eterna round: R96, puzzle: Exclusion NG 3)”: the “apparent KD of MS2 coat protein” value by setting is: (input ligand: FMN 200 uM) 727 nM; under setting [1], 260 nM; (input ligand: none) 896 nM. Regarding “GUGGGUUACAUGAGGAUCACCCAUGUAUAGUGGGAAGAGAUAUAGGAUAUAAUGUAAAAAUUAUAUUAGAAGGAUAGAGACUAG [AK ExNG3-1.3] (Eterna round: R96, puzzle: Exclusion NG 3)”, the “apparent KD of MS2 coat protein” value is 344 nM (input ligand: FMN 200 uM), 135 nM under setting [1] and 553 nM (input ligand: none). Consider “GUGGUCCGAGGAUAUAUUAUGUGAUACAUGAGGAUCACCCAUGUUAUAUAAUGGAUGUUAGUAGAAGGCGGACUAC [Mat - Exclusion 5 - JL mod - D83] (puzzle: Exclusion 5)”, for which the “apparent KD of MS2 coat protein” value runs as follows: under setting [3], 107 nM; under setting [2], 56 nM; under setting [4], 49.1 nM. On to “GUGUAACAUGAGGAUCACCCAUGUCAGGAUAUCCGCUUUAACUAAAUAAAUAAAUAGUGGAGAAGGGACAGCGC [-13.9, -13.37 kcal, 36% A] (Eterna round: R97, puzzle: Exclusion 1)”, for which the “apparent KD of MS2 coat protein” value amounted to 55.7 nM (input ligand: FMN 200 uM) and 46.8 nM (input ligand: none). As for “GUGUACAGAGGAUAUACACGAAUCUAGCGAAGCUAGGUUUGACAUGAGGAUCACCCAUGUAGAAGGCUGUACAC [Dot plot directed A detuned for Vienna 1] (puzzle: Exclusion 2)”, the “apparent KD of MS2 coat protein” value under setting [2] came out at 16.7 nM. “GUGUACAGAGGAUAUAUAUGAGCUAGGAAACUAGCAAACUCACAUGAGGAUCACCCAUGUAGAAGGCUGUACAC [Ex2: 722] (Eterna round: R96, puzzle: Exclusion 2)”: the “apparent KD of MS2 coat protein” value was determined as 220 nM (input ligand: FMN 200 uM), 22.4 nM under setting [1] and 26.9 nM (input ligand: none).

As for “GUGUACAGAGGAUAUAUAUGAGCUAGGAAACUAGCAAGAUCACAUGAGGAUCACCCAUGUAGAAGGCUGUACAC [Ex2: 735] (Eterna round: R96, puzzle: Exclusion 2)”, the “apparent KD of MS2 coat protein” value under setting [1] was found to be 102 nM. “GUGUAGACAGGAUAUGCUUUGAGCAUAUGAGAGUAUGCUCGACAUGAGGAUCACCCAUGUAGAAGGGUCUACAC [LRO-Excl2-02] (puzzle: Exclusion 2)”: under setting [2], the “apparent KD of MS2 coat protein” value is 12.9 nM. Turning to “GUGUAGAUAGGAUAUGCUGGAAUCUAGCGAAGCUAGGUUCCACAUGAGGAUCACCCAUGUAGAAGGGUCUACAC [Dot plot directed A v11] (puzzle: Exclusion 2)”, the “apparent KD of MS2 coat protein” value under setting [2] was 127 nM.

In the case of “GUGUAGCUAGGAUAUACAUGAGGAUCACCCAUGUGAAUAAGAUAGAAUAAGAUAAAGUGUAGAAGGAGUAGUGU [Excluse me!!! 15 - Jieux - Exclusion 3] (puzzle: Exclusion 3)”, the “apparent KD of MS2 coat protein” value under setting [3] amounted to 18.2 nM, the “apparent KD of MS2 coat protein” value under setting [2] amounted to 18.2 nM and the “apparent KD of MS2 coat protein” value under setting [4] stood at 18.7 nM. For the sequence “GUGUAGUCAGGAUAUACAUAGGAAGAGAAGAGAAGAGAAGGACAUGAGGAUCACCCAUGUAGAAGGGACAGUGU [Excluse me!! 5 - Jieux - Exclusion 2] (puzzle: Exclusion 2)”, the “apparent KD of MS2 coat protein” value under setting [2] came to 43.6 nM. On to “GUGUAGUCAGGAUAUACAUAGGAAGAGAAGAGAAGAUAAGUACAUGAGGAUCACCCAUGUAGAAGGGACAGUGU [Excluse me!! 7 - Jieux - Exclusion 2] (puzzle: Exclusion 2)”, for which, under setting [2], the “apparent KD of MS2 coat protein” value amounted to 32.1 nM. Consider “GUUAACGAUCAGGAUAUAUCAAAUCAUAGCUUGAUAGAAGGGAUCACAUGAGGAUCACCCAUGUGAUCUUCUUU [jl-ex6-4.14 ViennaUCT mod] (Eterna round: R97, puzzle: Exclusion 6)”, for which the “apparent KD of MS2 coat protein” value worked out at 15.3 nM (input ligand: FMN 200 uM) and 11.7 nM (input ligand: none).

On to “GUUAAGGUAGGAUAUACGAUAAUAUAGGGUAGAUAUAUAACACAUGAGGAUCACCCAUGUAGAAGGACCAAUUG [Mat - Exclusion 2 - Mod of my Tesla design - D53] (puzzle: Exclusion 2)”, for which, under setting [2], the “apparent KD of MS2 coat protein” value stood at 28.5 nM. With “GUUACACAUGAGGAUCACCCAUGUGAGGAUAUGGAUUCGUUAGAAGUAGAAGAUGGAUCCAGAAGGCGCGUGAG [JR_Ex1_Sub079] (Eterna round: R97, puzzle: Exclusion 1)”, the “apparent KD of MS2 coat protein” value (input ligand: FMN 200 uM) came to 160 nM and the “apparent KD of MS2 coat protein” value (input ligand: none) was determined as 62.7 nM. For “GUUAUGCAGCAGGAUAUCGAUCCGCGGUAUGAUCGAGAAGGGCUGACAUGAGGAUCACCCAUGUGCGUCCUAGG [jl-ex6-4.46 ViennaUCT mod] (Eterna round: R97, puzzle: Exclusion 6)” the same measures were 170 nM and 36.6 nM. In the same order, the values of “GUUGAUGUAGGAUAUACAUGAGGAUCACCCAUGUUGGUGCCCUAACCUAUUGGUGUACGUAGAAGGGCGGACUC [Eternabot (L2) Solution 96] (Eterna round: R97, puzzle: Exclusion 3)” are 103 nM and 95.2 nM. Consider “GUUGGUAAGUCAGGAUAUCCCUGUAAUGGCAGCGGAGAAGGGACAUGAGGAUCACCCAUGUGAACCUCCGGCGGAUAAACCCGC [Ancelave] (Eterna round: R96, puzzle: Exclusion NG 1)”, for which the “apparent KD of MS2 coat protein” value (input ligand: FMN 200 uM) came to 111 nM, the “apparent KD of MS2 coat protein” value under setting [1] was 29.5 nM and the “apparent KD of MS2 coat protein” value (input ligand: none) came to 23.6 nM. For “GUUGUUUAUGUAGGAUAUGCAAGGCGAACCUAAGCAGAAGGACAUGAGGAUCACCCAUGUAUUGCGGUCUGCGUUCAGAUCGCU [salish99_ExNG1_r4_014] (Eterna round: R96, puzzle: Exclusion NG 1)” the same measures were 56.8 nM, 16.3 nM and 20.1 nM. “GUUUGACAUGAGGAUCACCCAUGUAAGGAUAUACGAGUAGAUGAUAGAUAGAUAGUAUGUAGAAGGUACGUGUU [EX1 #61] (Eterna round: R97, puzzle: Exclusion 1)”: the “apparent KD of MS2 coat protein” value runs as follows: (input ligand: FMN 200 uM) 74.3 nM; (input ligand: none) 92.8 nM.
